Measurements published in US20250002581A1.

Tests used:
PD1 (human) [1] = target: PD1 (human) (UniProt Q15116); test: flow cytometry on 293T-PD1 cells, antibody 10 ng/ml; average ± deviation
PD1 (human) [2] = target: PD1 (human) (UniProt Q15116); test: flow cytometry on 293T-PD1 cells, antibody 10 ng/ml, second anti-human Fc antibody; the filing calls this staining non-specific

Sequence of PD1 (human) (Q15116 25-288): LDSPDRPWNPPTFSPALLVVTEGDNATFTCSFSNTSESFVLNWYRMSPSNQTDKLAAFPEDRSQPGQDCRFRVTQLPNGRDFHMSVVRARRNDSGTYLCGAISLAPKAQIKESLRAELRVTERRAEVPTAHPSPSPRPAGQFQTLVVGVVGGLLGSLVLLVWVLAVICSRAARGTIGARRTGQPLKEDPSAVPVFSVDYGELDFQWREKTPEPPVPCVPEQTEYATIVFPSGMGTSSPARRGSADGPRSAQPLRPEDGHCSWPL

Binder | 293T-PD1 (%) (PD1 (human) [1]) | 293T-PD1 (%) (PD1 (human) [2])
murine CH101 (antibody, V domains shown) VH: EVQLEESGPDLVKPSQSLSLTCTVTGYSITSGFAWHWLRQFPGNRLEWMGYIHYSGSTNYNPSLKSRISITRDTSKNQFFLQLNSVTTEDTATFYCARSDFWGQGTFVTVSS VL: DVVMTQTPLNLSVTFGQPVSISCTSSQSLLDRDGETFMNWLFQRPGQSPKRLIYLVSKLDFGVPDRFTGSGSGTDFTLKISRVEAEDLGIYYCWQGTHFPLTFGGGTKLEIK | 3.15 | 
CH101-huIgG1(L/S) (antibody, not shown: a dimerising Fc or GST) heavy: EVQLEESGPDLVKPSQSLSLTCTVTGYSITSGFAWHWLRQFPGNRLEWMGYIHYSGSTNYNPSLKSRISITRDTSKNQFFLQLNSVTTEDTATFYCARSDFWGQGTFVTVSS light: DVVMTQTPLNLSVTFGQPVSISCTSSQSLLDRDGETFMNWLFQRPGQSPKRLIYLVSKLDFGVPDRFTGSGSGTDFTLKISRVEAEDLGIYYCWQGTHFPLTFGGGTKLEIKRTVAAPSVFIFPPSDEQLKSGTASVVCLLNNFYPREAKVQWKVDNALQSGNSQESVTEQDSKDSTYSLSSTLTLSKADYEKHKVYACEVTHQGLSSPVTKSFNRGEC |  | 38.5
